Assay [1] concerns the target cyclophilin D (UniProt P30405). The assay is described as follows: SPR. A general note: Surface plasmon resonance follows binding to a sensor surface in real time, without labels.
Assay [2] addresses cyclophilin D (UniProt P30405). Put plainly: NMR titration.

cyclophilin D, sequence (P30405 43-207): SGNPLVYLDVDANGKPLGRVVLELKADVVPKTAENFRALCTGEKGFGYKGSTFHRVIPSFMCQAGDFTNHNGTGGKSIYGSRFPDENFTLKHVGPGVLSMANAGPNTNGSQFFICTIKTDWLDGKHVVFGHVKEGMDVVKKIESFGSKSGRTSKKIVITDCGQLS

As for p53 NTD-DBD (domain or fragment), the equilibrium dissociation constant (Kd) in assay [1] is 10 µM.

Take “p53 N-terminal domain (NTD) (domain or fragment)”: in assay [2], the residue-based KD (CypD residue G65) stood at 4.1 μΜ, the residue-based KD (CypD residue I114) was found to be 32 μΜ and the residue-based KD (CypD residue S77) came to 6.6 μΜ. In addition, the Kd in assay [1] is 8.4 µM.

What is called Kd is a measure of binding affinity in units of concentration. Lower therefore signals tighter binding.
